Drawing on publication PMC11097922, this text covers PLA signal for one substance.

The experiment concerns the target 220 kDa ankyrin-B-GFP. As to the kind of experiment: proximity ligation.

Substance “NaV1.2 II-III loop-3xHA (wild type) (from UniProt Q99250 991-1211) (domain or fragment)” had a PLA signal of 11.6 a.u.
